Measured values taken from the supplement of paper PMC11908140.

B1: library; numbered along this chain (parent)
chain: MRKPRAAVGSGHRKQAASQEGRQKHAKNNSQAKPSACDGLARQPEEVVLQASVSSYHLFRDVAEVTAFRGSLLSWYDQEKRDLPWRRRAEDEMDLDRRAYAVWVSEVMLQQTQVATVINYYTGWMQKWPTLQDLASASLEEVNQLWAGLGYYSRGRRLQEGARKVVEELGGHMPRTAETLQQLLPGVGRYTAGAIASIAFGQATGVVDGNVARVLCRVRAIGADPSSTLVSQQLWGLAQQLVDPARPGDFNQAAMELGATVCTPQRPLCSQCPVESLCRARQRVEQEQLLASGSLSGSPDVEECAPNTGQCHLCLPPSEPWDQTLGVVNFPRKASRKPPREESSATCVLEQPGALGAQILLVQRPNSGLLAGLWEFPSVTWEPSEQLQRKALLQELQRWAGPLPATHLRHLGEVVHTFSHIKLTYQVYGLALEGQTPVTTVPPGARWLTQEEFHTAAVSTAMKKVFRVYQGQQPGTCMGSKRSQVSSPCSRKKPRMGQQVLDNFFRSHISTDAHSLNSAAQ

Variants of: B1
Assay: 8OG:A repair function score (normalized; synonymous = 0, nonsense = -1) (normalized log-likelihood score); higher = more repair activity (WT-like)
Conditions: with 8OG:A DNA repair reporter (GFP) in HEK-293 MUTYH KO cells
Protocol: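 Saturation mutagenesis (NNN codon scan) of the MUTYH cDNA (521-aa nuclear isoform NM_001048174.1 / NP_001041639), stably expressed under doxycycline induction in HEK-293 MUTYH knockout cells. Cells were co-transfected with an 8OG:A-bearing GFP repair reporter plus mCherry and sorted 72 h later into GFP+ and GFP− bins, three replicates per tile. The Rosace log2 enrichment (GFP+ vs GFP−) was converted per tile to a normalized function score with synonymous variants centered at 0 and nonsense variants (codons 1-471) at -1; low-abundance variants were removed.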

8OG:A repair function score of substitutions, site by site:
L72: E -1.21; Y -1.03; I -0.0959; S -0.775; V -0.446; F -1.08; P -1.34; Q -1.44; M -0.732; R -1.65; A -0.207; N -2.41; H -1.08; W -0.994; T -0.206; C -0.229; G -1.17; K -1.1; D -1.11
G70: Q -0.528; A -0.0222; D -0.369; M -0.00743; V 0.0055; T -0.693; P -0.126; L -0.0189; I -0.00774; C 0.00567; E -0.0876; R 0.00416; F -0.115; S -0.0056
S74: T -0.0089; H 0.00229; Y 0.00544; E 0.00141; L -0.0187; D -0.132; G -0.00226; P 0.00278; W -0.0127; R 0.00425; M 0.00605; Q 0.00637; C -0.0037; V -0.0223; I -0.0694; F -0.0182; N -0.0112; K -0.0253
R69: V -0.212; T -0.172; S -0.0909; Y -0.421; W -3.43
D77: S -0.0758; K -0.0637; A -0.0463; T -0.0415; Q -0.0294; H -0.228; G -0.0368; F -0.0355; P -0.464; I -0.0954; V -0.0835; C -0.0754; Y -0.0402; L -0.131; M -0.0782; R -0.122; N -0.122; W -0.0696; E -0.0615
S71: Q -0.0211; N -0.00566; H -0.0346; F 0.00684; D -0.0972; L -0.00671; Y -0.0584; W 0.000735; A -0.0236; M 0.00635; P -0.0398; R -0.0148; V 0.00531; K -0.0254; T -0.0759; G -0.000985; E -0.0479; I -0.125; C -0.00534
L73: G -0.786; I -0.0679; R -0.593; Q -0.236; M -0.0108; D -1.01; F -0.261; N -0.718; T -0.136; K -0.453; A -0.307; Y -2.08; S -0.594; P -1.57; W -0.824; V -0.108; C -0.0699; H -0.344; E -0.46
Q78: I -0.00974; S 0.00682; C -0.996; R 0.00285; H -0.0658; K -0.0833; D -0.00768; F -0.0455; G -0.0331; P -0.138; N -0.105; M -0.517; E 0.00685; L -0.0196; A -0.00817; T -0.00936
Y76: T -1.06; S -1.16; L -1.17; F -0.0268; V -1.41; E -1.5; H -0.27; K -1.41; Q -1.53; I -1.28; N -1.1; A -1.05; G -1.14; P -1.8; D -1.25; M -1.2; W -0.136; R -1.37; C -1.48
W75: I -2.41; H -0.412; L -2.04; Y -0.448; S -1.58; E -1.57; R -1.13; P -3.8; M -1.05; C -1.25; A -1.3; G -1.2; N -2.91; D -3.7; T -3.63; Q -1.46; F -0.21; V -1.78; K -1.2
